Measurements as given in publication PMC8718266.

Target: HA-FBW7 (UniProt Q8VBV4)
Assay: FLAG IP, HA immunoblot
Conditions: reference: wild type

Substance	binding against the reference (sites T243,S247)	binding against the reference (sites T171,S175)
KLF2 (3xFLAG-KLF2) (from UniProt Q60843) 2A C (T243A/S247A)	weaker	–
KLF2 (3xFLAG-KLF2) (from UniProt Q60843) 2A N (T171A/S175A)	–	weaker
